Source: article PMC9095979, “Optimization of eIF4E-Binding Peptide Pep8 to Disrupt the RBM38-eIF4E Complex for Induction of p53 and Tumor Suppression” (Frontiers in Oncology, 2022)

Biological target: T1, eIF4E (purified, from pTXB1-eIF4E) (UniProt P06730 1-217)
T1 construct: also called purified eIF4E; source: pTXB1-eIF4E; protein expression and purification as previously described (12)
Test: pull-down; competitive: GST-RBM38 on GST beads, 250 µg purified eIF4E and 10 µM peptide in lysis buffer (50 mM Tris pH 7.5, 150 mM NaCl, 0.1% Triton X-100), rocked overnight, washed 3x, western blot
Details: both partners purified

T1 sequence (P06730 whole entry): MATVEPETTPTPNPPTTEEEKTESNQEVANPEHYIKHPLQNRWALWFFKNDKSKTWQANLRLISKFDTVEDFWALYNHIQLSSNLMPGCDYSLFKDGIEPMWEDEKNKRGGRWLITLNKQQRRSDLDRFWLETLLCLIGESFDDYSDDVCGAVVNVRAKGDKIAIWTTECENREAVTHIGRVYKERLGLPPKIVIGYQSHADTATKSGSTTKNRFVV

B1: Pep7 (peptide)
peptide: PSAASPV
notes: also called Pep7-PSAASPV; shortened 7-amino acid peptide; source: synthetic peptide (GenScript)
binding result: binds
